Test results reported in US20240409645A1 (DUALYX, published 2024).
Where a chain is given by its changes, count along the chain named. Blank lines part the entries; values can stand above or below the binder they belong to.

Assays:
[1] = target: T1, human IL-2Rβ (human, UniProt P14784 27-240, limits assumed); assay: P.E. binding ELISA on coated protein
T1 construct: Recombinant protein, coated (ELISA) or immobilised on CM5 (SPR); also called hu IL-2R; interleukin 2 receptor β-chain
T1 sequence: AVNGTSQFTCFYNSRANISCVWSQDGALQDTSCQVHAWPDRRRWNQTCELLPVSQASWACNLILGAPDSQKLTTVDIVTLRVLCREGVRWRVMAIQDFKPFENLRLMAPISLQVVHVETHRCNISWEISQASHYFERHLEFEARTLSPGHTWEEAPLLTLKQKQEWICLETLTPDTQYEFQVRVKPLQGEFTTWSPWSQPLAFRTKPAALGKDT
Description: In a binding ELISA, human or mouse IL-2Rα, IL-2Rβ and IL-2Rγ proteins were coated directly on maxisorp microtiter plates overnight at 4° C. Free binding sites were blocked using 4% Marvel in PBS for 1 hour. Next, 1:5 dilution of P.E. in 1% Marvel/PBS were added to wells and incubated for 1 hour. […] Binding specificity was determined based on O.D. at 450 nm values compared to negative controls.

[2] = target: T1, human IL-2Rβ; assay: SPR (Biacore), P.E. off-rate ranking

P.E. binding ELISA OD [1]: 0.211 OD450 nm
koff [2]: 0.00168 s⁻¹
B1: FJ1427 P035MP03E07 (VHH)
VHH: QVQLVESGGGLVQAGGSLRLSCAVSGDVFVRYTMAWFRQAPGKEREFVATVTDSGRTTEYVDSVKGRFTVSRDNAKNTVYLQMNNLKPEDTAVYYCAANTDYFRIRSLDANTWGQGTQVTVSS
notes: soluble VHH in periplasmic extract; also called clone nr

P.E. binding ELISA OD [1]: 0.401 OD450 nm
koff [2]: 0.000898 s⁻¹
B2: FJ1427_P035MP03B05 (VHH)
VHH: EVQLVESGGGLVQAGGSLRLACALSGDVFVRYTMAWFRQAPGKEREFVASVTDSGRTTDYVASVQGRFTVSRDNNKNTVYLQMNSLKPEDTAVYYCAANTDYFQIRSLDRNTWGQGTQVTVSS
notes: as for B1

P.E. binding ELISA OD [1]: 0.983 OD450 nm
koff [2]: 0.000636 s⁻¹
B3: FJ1427_P035MP03A10 (VHH)
VHH: B2 VHH with E1Q
notes: as for B1

P.E. binding ELISA OD [1]: 0.843 OD450 nm
koff [2]: 0.000713 s⁻¹
B4: FJ1427_P035MP03G09 (VHH)
VHH: B1 VHH with A23V, T50V, R104Q, L108V, A110N, T112A
notes: as for B1

P.E. binding ELISA OD [1]: 0.348 OD450 nm
koff [2]: 0.000561 s⁻¹
B5: FJ1427_P035MP06A01 (VHH)
VHH: B2 VHH with E1Q
notes: as for B1

P.E. binding ELISA OD [1]: 1.34 OD450 nm
koff [2]: 0.000544 s⁻¹
B6: FJ1427_P035MP06C01 (VHH)
VHH: B1 VHH with V24A, T50S, E59D, N85A, R104Q, R106K, A110L
notes: as for B1

P.E. binding ELISA OD [1]: 1.31 OD450 nm
koff [2]: 0.000514 s⁻¹
B7: FJ1427 P035MP03C11 (VHH)
VHH: B2 VHH with E1Q
notes: as for B1

P.E. binding ELISA OD [1]: 1.21 OD450 nm
koff [2]: 0.000658 s⁻¹
B8: FJ1427 P035MP03C06 (VHH)
VHH: B2 VHH with E1Q
notes: as for B1

P.E. binding ELISA OD [1]: 0.393 OD450 nm
koff [2]: 0.000195 s⁻¹
B9: FJ1427 P035MP03A06 (VHH)
VHH: EVQLVESGGGLVQTGGSLRLSCAVSGSRFISDVMGWYRQVPGKARELVADMADGGSAKYADSVKGRFSIVRDSGKSTMYLQMSSLKPEDTGMYYCKAGLWIAGRHSDYWGQGTQVTVSS
notes: as for B1

P.E. binding ELISA OD [1]: 0.23 OD450 nm
koff [2]: 0.000526 s⁻¹
B10: FJ1427 P035MP03E05 (VHH)
VHH: EVQLVESGGGLVQAGGSLRLSCAVSGVIFWSDVVGWYRQASGKQRELVATINLDDTKHYGEVVKGRFAISRDSHKNAYYLQLNSLKPEDTAVYYCNVRRGSEFYWGQGTQVTVSS
notes: as for B1

P.E. binding ELISA OD [1]: 0.372 OD450 nm
koff [2]: 0.000533 s⁻¹
B11: FJ1427_P035MP03C07 (VHH)
VHH: QVQLVESGGGLVQAGDSLRLSCAASGRSLSTDCMGWVRQAPGKEREFVAGITWGTGSTLYADSVEGRFTISKDNAKNTGYLQMSSLKPEDTAVYYCAVDRYCYRGTVYRDWGRGTQVTVSS
notes: as for B1

P.E. binding ELISA OD [1]: 0.398 OD450 nm
koff [2]: 0.00207 s⁻¹
B12: FJ1427_P035MP03E10 (VHH)
VHH: EVQLVESGGGLVQPGGSLRLSCAASGFTFRNYAMSWVRQAPGKGLEWVGGITGEGLGTIYQDSVEGRFTISRNNAKNTLYLQMNSLRSEDTAVYYCTKMASGTLFRDKPYEYTSRGQGTQVTVSS
notes: as for B1

P.E. binding ELISA OD [1]: 0.201 OD450 nm
koff [2]: 0.00286 s⁻¹
B13: FJ1427_P035MP03G07 (VHH)
VHH: QVQLVESGGGLVQAGGSLRLSCAASGRTFSSDAKGWFRQAPGKEREFVAAITWAGRGTDYADSVKGRFTITRDNAKNMVYLQMSNLKPEDTAVYYCALNPEGVIGPYFRNSNRYNYWGQGTQVTVSS
notes: as for B1

P.E. binding ELISA OD [1]: 0.208 OD450 nm
koff [2]: 0.00048 s⁻¹
B14: FJ1427_P035MP03A09 (VHH)
VHH: QVQLVESGGGLVQAGGSLRLACAASGRTFSTLTMGWFRQAPGKEREFVAGISPSGGYAWHADSVKGRFTIDRDNAKNTVYLQTRSLRPEDTAVYYCAADHPPYGAVASRSEYEYDDWGPGTRVTVSS
notes: as for B1

P.E. binding ELISA OD [1]: 1.11 OD450 nm
koff [2]: 0.000149 s⁻¹
B15: FJ1427_P035MP03E08 (VHH)
VHH: QVQLVESGGGLVQAGGSLRLSCAAAGRAIENYPVGWFRRAPGKEREFVAAITWISGSTLYADSVKGRFTISRDNAKNTVYLQMSSLKPEDTALYYCAAALKTITRGQNDYSYWGQGTQVTVSS
notes: as for B1

P.E. binding ELISA OD [1]: 0.621 OD450 nm
koff [2]: 0.000347 s⁻¹
B16: FJ1427 P035MP03F09 (VHH)
VHH: B15 VHH with Q1E, R19T, A25S, I29F, E30S, R39Q, I54L, K65E, Q82L, Y95F
notes: as for B1

P.E. binding ELISA OD [1]: 0.307 OD450 nm
koff [2]: 0.000281 s⁻¹
B17: FJ1427_P035MP03A07 (VHH)
VHH: QVQLVESGGGLVEAGGSLRLSCAASGRAFNNFPMGWFRQAPGKEREFVAAITWISGSTLYADSVKGRFTISRDKSKNTVYLQMSGLKPEDTALYYCAAALKTITRGQHDYTYWGQGTQVTVSS
notes: as for B1

P.E. binding ELISA OD [1]: 0.166 OD450 nm
koff [2]: 0.00184 s⁻¹
B18: FJ1427_P035MP03H09 (VHH)
VHH: QVQLVESGGGLVQAGGSLRLSCAASGSIFSINAMGWFRQAPGKEREFVAAISRSGGSTAYVDSVKGRFTISRDNSKNMVHLQMNSLKSEDEAVYYCAATAAVGWTSRWITTDFDSWGQGTQVTVSS
notes: as for B1
